# Measurements as given in US20150329642A1 (Genmab, published 2015).
# Experiments:
# cMetECDHis [1] = molecular target: T1, cMetECDHis (human, UniProt P08581 25-932, limits assumed, biotinylated in the cross-block ELISA of Example 17); assay: cross-block ELISA; competitor 035
# T1 construct: Expressed in HEK-293F cells; also called soluble cMetECDHis; biotinylated cMetECDHis
# Procedure: (§1) First, the optimal coating concentrations of the tested anti-c-Met antibodies and the optimal cMetECDHis concentration were determined. Therefore, ELISA wells were coated overnight at 4° C. with anti-c-Met HuMabs serially diluted in PBS (8 μg/mL in 2-fold dilutions). Next, the ELISA wells were washed with PBST (PBS supplemented with 0.05% Tween-20 [Sigma-Aldrich, Zwijndrecht, The Netherlands]) and blocked for one hour at room temperature (RT) with PBSTC (PBST supplemented 2% [v/v] chicken serum [Gibco, Paisley, Scotland]). Subsequently, the ELISA wells were washed with PBST and incubated for one hour at RT with biotinylated cMetECDHis serially diluted in PBSTC (1 μg/mL in 2-fold dilutions). Unbound biotinylated cMetECDHis was washed away with PBST, and bound biotinylated cMetECDHis was incubated for one hour at RT with 0.1 μg/mL Streptavidin-poly-HRP (Sanquin, Amsterdam, The Netherlands) diluted in PBST.
# (§2) ELISA wells were coated with anti-c-Met antibody at a sub-optimal dose as described above. After blocking of the ELISA wells, they were incubated with the predetermined concentration of biotinylated cMetECDHis in the presence of an excess of anti-c-Met antibody. The reaction was developed as described above. Residual binding was expressed as a percentage relative to the binding observed in the absence of competitor antibody.
# cMetECDHis [2] = molecular target: T1, cMetECDHis; assay: BLI (Octet); antibody captured, cMetECDHis in solution
# Procedure: Antibody binding to cMetECDHis was analyzed by means of Bio-Layer Interferometry (BLI) technology on the Octet System (Fortebio, Menlo Park, USA). Anti-human IgG coated biosensors (Fc-specific) were used to capture anti-c-Met antibodies according to the procedure recommended by the manufacturer. cMetECDHis derived from HEK293 cells was loaded on top of the immobilized anti-c-Met antibodies by placing the loaded biosensor into a well containing 10 μg/mL cMetECDHis diluted in 10 times diluted kinetics buffer (Fortebio). The difference in reflection of light (AA, nm) of the biosensor surface due to the binding of cMetECDHis was measured in real time during approximately 10 minutes and was used by the Octet software (V4.0, Fortebio) to calculate the association constant (kₐ [1/M×s]). Next, the loaded biosensor was placed into a well containing only kinetics buffer (10 times diluted in PBS) to determine the dissociation constant (kd [1/s]). Kinetics analysis was performed to determine the affinity (KD [M]) using model 1:1 (langmuir). As a positive control, 0.2 μg/mL 5D5 IgG1 produced in HEK293 cells, was used.
# cMetECDHis [3] = molecular target: T1, cMetECDHis; assay: cross-block ELISA; competitor 098
# Procedure: as §1, §2
# cMetECDHis [4] = molecular target: T1, cMetECDHis; assay: cross-block ELISA; competitor 101
# Procedure: as §1, §2
# cMetECDHis [5] = molecular target: T1, cMetECDHis; assay: cross-block ELISA; competitor 181
# Procedure: as §1, §2
# cMetECDHis [6] = molecular target: T1, cMetECDHis; assay: cross-block ELISA; competitor 058
# Procedure: as §1, §2
# cMetECDHis [7] = molecular target: T1, cMetECDHis; assay: cross-block ELISA; competitor 006
# Procedure: as §1, §2
# cMetECDHis [8] = molecular target: T1, cMetECDHis; assay: cross-block ELISA; competitor 5D5
# Procedure: as §1, §2
# cMetECDHis [9] = molecular target: T1, cMetECDHis; assay: cross-block ELISA; competitor 069
# Procedure: as §1, §2
# cMetECDHis [10] = molecular target: T1, cMetECDHis; assay: cross-block ELISA; competitor 068
# Procedure: as §1, §2
# cMetECDHis [11] = molecular target: T1, cMetECDHis; assay: cross-block ELISA; competitor 045
# Procedure: as §1, §2
# cMetECDHis [12] = molecular target: T1, cMetECDHis; assay: cross-block ELISA; competitor 062
# Procedure: as §1, §2
# cMetECDHis [13] = molecular target: T1, cMetECDHis; assay: cross-block ELISA; competitor G11-HZ
# Procedure: as §1, §2
# cMetECDHis [14] = molecular target: T1, cMetECDHis; assay: cross-block ELISA; competitor 064
# Procedure: as §1, §2
# cMetECDHis [15] = molecular target: T1, cMetECDHis; assay: cross-block ELISA; competitor 024
# Procedure: as §1, §2
# cMetECDHis [16] = molecular target: T1, cMetECDHis; assay: cross-block ELISA; competitor 005
# Procedure: as §1, §2
# cMetECDHis [17] = molecular target: T1, cMetECDHis; assay: cross-block ELISA; competitor 008
# Procedure: as §1, §2
Binder,"residual binding, % of no competitor (cMetECDHis [1]) [%]",Kd (cMetECDHis [2]) [nM],koff (cMetECDHis [2]) [s⁻¹],kon (cMetECDHis [2]) [M⁻¹ s⁻¹],"residual binding, % of no competitor (cMetECDHis [3]) [%]","residual binding, % of no competitor (cMetECDHis [4]) [%]","residual binding, % of no competitor (cMetECDHis [5]) [%]","residual binding, % of no competitor (cMetECDHis [6]) [%]","residual binding, % of no competitor (cMetECDHis [7]) [%]","residual binding, % of no competitor (cMetECDHis [8]) [%]","residual binding, % of no competitor (cMetECDHis [9]) [%]","residual binding, % of no competitor (cMetECDHis [10]) [%]","residual binding, % of no competitor (cMetECDHis [11]) [%]","residual binding, % of no competitor (cMetECDHis [12]) [%]","residual binding, % of no competitor (cMetECDHis [13]) [%]","residual binding, % of no competitor (cMetECDHis [14]) [%]","residual binding, % of no competitor (cMetECDHis [15]) [%]","residual binding, % of no competitor (cMetECDHis [16]) [%]","residual binding, % of no competitor (cMetECDHis [17]) [%]"
"anti-c-Met HuMab 008 (IgG1) (antibody, V domains shown, also called TH1016-008; PC1016-008) VH: EVQLVQSGAEVKKPGESLKISCKGSGYSFTSYWIGWVRQMPGKGLEWMGIIYPGDSETRYSPSFQGQVTISADKSISTAYLQWSSLKASDTAMYYCARQEITGEFDYWGQGTLVTVSS VL: AIQLTQSPSSLSASVGDRVTITCRASQGISSALAWYQQKPGKAPKLLIYDASSLESGVPSRFSGSGSGTDFTLTISSLQPEDFATYYCQQFNSYPRTFGQGTKVEIK",32.9,5.12,0.00157,308000,107,101,111,40.8,47.3,32.4,104,112,100,100,2.7,107,103,63.9,5.4
"IgG1-024 (antibody, V domains shown, also called TH1016-024; PC1016-024) VH: EVQLLESGGGLVQPGGSLRLSCVASGFTFSSYAMSWVRQAPGKGLEWVSAISGSSGGSTYYVDSVKGRFTISRANSKNTLYLQMNSLRAEDTAVYYCAKDLDRGWMGYFGYWGQGTLVTVSS VL: DIQMTQSPSSVSASVGDRVTITCRASQGISSWLAWYQHKPGKAPKLLIYAASSLQSGVPSRFSGSGSGTDFTLTISSLQPEDFATYYCQQANSFPTFGQGTRLEIK",108,1.57,0.000228,145000,10.4,4.8,7.1,103,101,95.5,2.9,12,98.1,2.3,98.2,2.3,5.4,98.4,104
"anti-c-Met HuMab 005 (IgG1) (antibody, V domains shown, also called TH1016-005; PC1016-005) VH: QVQLVQSGAEVKKPGSSVKVSCKASGGTFSSYGFGWVRQAPGQGLEWMGRISPILGIANYAQMFQGRVTITADKSTSTAYMELSSLRSEDTAVYYCARDVGYDWPDTFDIWGQGTMVIVSS VL: DIQMTQSPSSLSASVGDRVTITCRASQGISSWLAWYQQKPEKAPKSLIYAASSLQSGVPSRFSGGGSGTDFTLTISSLQPEDFATYYCQQYNSFPPTFGQGTKVEIK",84.9,7.92,0.00252,318000,110,103,131,3.6,18.2,2.9,124,129,117,118,76.8,118,114,7.7,81.9
"IgG1-1016-022 (antibody, V domains shown, also called TH1016-022; PC1016-022) VH: QVQLVESGGGVVQPGRSLRLSCAASGFTFSSYAMHWVRQAPGKGLEWVAVISYDGSNKYYADSVKGRFTISRDNSKNTLYLQMNSLRAEDTAVYYCARELLWFGELWGYFDLWGRGTLVTVSS VL: DIQMTQSPSSVSASVGDRVTITCRASQGISSWLAWYQHKPGKAPKLLIYAASSLQSGVPSRFSGSGSGTDFTLTISSLQPEDFATYYCQEASSFTWTFGQGTKVEIK",92.4,1.06,0.000251,236000,105,104,107,5.8,60.5,4.2,99.6,104,95.7,99.4,85.9,102,99.4,37.9,94.1
"anti-c-Met HuMab 006 (IgG1) (antibody, V domains shown, also called TH1016-006; PC1016-006) VH: QVQLVQSGAEVKKPGSSVKVSCKASGGTFSSFGIGWVRQAPGQGLEWMGRIFPILGTANYAQMFQGRVTITADKSTSTAYMELTSLRSEDTAVYYCARDVGYDSADAFDIWGQGTMVTVSS VL: DIQMTQSPSSLSASVGDRVTITCRASQGISSWLAWYQQKPEKAPKSLIYAASSLQSGVPSRFSGSGSGTDFTLTISSLQPEDFATYYCQQYNSYPPTFGQGTKVEIK",67.5,9.89,0.0042,425000,111,106,124,3.6,14.6,3.1,124,129,114,119,54,122,113,11.3,58.8
